Assay results published in patent US20110045489A1, “Polymerases for Incorporating Modified Nucleotides” (NEW ENGLAND BIOLABS, INC., priority 2008, published 2011).

B1: 9° N D141A/E143A/N491V/Y494H: 9° N DNA polymerase mutant (protein, UniProt Q56366 1-775, looked up, variant D141A E143A N491V Y494H)
DNA polymerase: MILDTDYITENGKPVIRVFKKENGEFKIEYDRTFEPYFYALLKDDSAIEDVKKVTAKRHGTVVKVKRAEKVQKKFLGRPIEVWKLYFNHPQDVPAIRDRIRAHPAVVDIYEYDIPFAKRYLIDKGLIPMEGDEELTMLAFAIATLYHEGEEFGTGPILMISYADGSEARVITWKKIDLPYVDVVSTEKEMIKRFLRVVREKDPDVLITYNGDNFDFAYLKKRCEELGIKFTLGRDGSEPKIQRMGDRFAVEVKGRIHFDLYPVIRRTINLPTYTLEAVYEAVFGKPKEKVYAEEIAQAWESGEGLERVARYSMEDAKVTYELGREFFPMEAQLSRLIGQSLWDVSRSSTGNLVEWFLLRKAYKRNELAPNKPDERELARRRGGYAGGYVKEPERGLWDNIVYLDFRSLYPSIIITHNVSPDTLNREGCKEYDVAPEVGHKFCKDFPGFIPSLLGDLLEERQKIKRKMKATVDPLEKKLLDYRQRAIKILAVSFHGYYGYAKARWYCKECAESVTAWGREYIEMVIRELEEKFGFKVLYADTDGLHATIPGADAETVKKKAKEFLKYINPKLPGLLELEYEGFYVRGFFVTKKKYAVIDEEGKITTRGLEIVRRDWSEIAKETQARVLEAILKHGDVEEAVRIVKEVTEKLSKYEVPPEKLVIHEQITRDLRDYKATGPHVAVAKRLAARGVKIRPGTVISYIVLKGSGRIGDRAIPADEFDPTKHRYDAEYYIENQVLPAVERILKAFGYRKEDLRYQKTKQVGLGAWLKVKGKK
B2: 9° N D141A/E143A/R406V/L408R: 9° N DNA polymerase mutant (protein, UniProt Q56366 1-775, looked up, variant D141A E143A R406V L408R)
DNA polymerase: MILDTDYITENGKPVIRVFKKENGEFKIEYDRTFEPYFYALLKDDSAIEDVKKVTAKRHGTVVKVKRAEKVQKKFLGRPIEVWKLYFNHPQDVPAIRDRIRAHPAVVDIYEYDIPFAKRYLIDKGLIPMEGDEELTMLAFAIATLYHEGEEFGTGPILMISYADGSEARVITWKKIDLPYVDVVSTEKEMIKRFLRVVREKDPDVLITYNGDNFDFAYLKKRCEELGIKFTLGRDGSEPKIQRMGDRFAVEVKGRIHFDLYPVIRRTINLPTYTLEAVYEAVFGKPKEKVYAEEIAQAWESGEGLERVARYSMEDAKVTYELGREFFPMEAQLSRLIGQSLWDVSRSSTGNLVEWFLLRKAYKRNELAPNKPDERELARRRGGYAGGYVKEPERGLWDNIVYLDFVSRYPSIIITHNVSPDTLNREGCKEYDVAPEVGHKFCKDFPGFIPSLLGDLLEERQKIKRKMKATVDPLEKKLLDYRQRAIKILANSFYGYYGYAKARWYCKECAESVTAWGREYIEMVIRELEEKFGFKVLYADTDGLHATIPGADAETVKKKAKEFLKYINPKLPGLLELEYEGFYVRGFFVTKKKYAVIDEEGKITTRGLEIVRRDWSEIAKETQARVLEAILKHGDVEEAVRIVKEVTEKLSKYEVPPEKLVIHEQITRDLRDYKATGPHVAVAKRLAARGVKIRPGTVISYIVLKGSGRIGDRAIPADEFDPTKHRYDAEYYIENQVLPAVERILKAFGYRKEDLRYQKTKQVGLGAWLKVKGKK
B3: 9° N D141A/E143A/R406T/L408R: 9° N DNA polymerase mutant (protein, UniProt Q56366 1-775, looked up, variant D141A E143A R406T L408R)
DNA polymerase: MILDTDYITENGKPVIRVFKKENGEFKIEYDRTFEPYFYALLKDDSAIEDVKKVTAKRHGTVVKVKRAEKVQKKFLGRPIEVWKLYFNHPQDVPAIRDRIRAHPAVVDIYEYDIPFAKRYLIDKGLIPMEGDEELTMLAFAIATLYHEGEEFGTGPILMISYADGSEARVITWKKIDLPYVDVVSTEKEMIKRFLRVVREKDPDVLITYNGDNFDFAYLKKRCEELGIKFTLGRDGSEPKIQRMGDRFAVEVKGRIHFDLYPVIRRTINLPTYTLEAVYEAVFGKPKEKVYAEEIAQAWESGEGLERVARYSMEDAKVTYELGREFFPMEAQLSRLIGQSLWDVSRSSTGNLVEWFLLRKAYKRNELAPNKPDERELARRRGGYAGGYVKEPERGLWDNIVYLDFTSRYPSIIITHNVSPDTLNREGCKEYDVAPEVGHKFCKDFPGFIPSLLGDLLEERQKIKRKMKATVDPLEKKLLDYRQRAIKILANSFYGYYGYAKARWYCKECAESVTAWGREYIEMVIRELEEKFGFKVLYADTDGLHATIPGADAETVKKKAKEFLKYINPKLPGLLELEYEGFYVRGFFVTKKKYAVIDEEGKITTRGLEIVRRDWSEIAKETQARVLEAILKHGDVEEAVRIVKEVTEKLSKYEVPPEKLVIHEQITRDLRDYKATGPHVAVAKRLAARGVKIRPGTVISYIVLKGSGRIGDRAIPADEFDPTKHRYDAEYYIENQVLPAVERILKAFGYRKEDLRYQKTKQVGLGAWLKVKGKK
B4: 9° N D141A/E143A/R406T/L408E: 9° N DNA polymerase mutant (protein, UniProt Q56366 1-775, looked up, variant D141A E143A R406T L408E)
DNA polymerase: MILDTDYITENGKPVIRVFKKENGEFKIEYDRTFEPYFYALLKDDSAIEDVKKVTAKRHGTVVKVKRAEKVQKKFLGRPIEVWKLYFNHPQDVPAIRDRIRAHPAVVDIYEYDIPFAKRYLIDKGLIPMEGDEELTMLAFAIATLYHEGEEFGTGPILMISYADGSEARVITWKKIDLPYVDVVSTEKEMIKRFLRVVREKDPDVLITYNGDNFDFAYLKKRCEELGIKFTLGRDGSEPKIQRMGDRFAVEVKGRIHFDLYPVIRRTINLPTYTLEAVYEAVFGKPKEKVYAEEIAQAWESGEGLERVARYSMEDAKVTYELGREFFPMEAQLSRLIGQSLWDVSRSSTGNLVEWFLLRKAYKRNELAPNKPDERELARRRGGYAGGYVKEPERGLWDNIVYLDFTSEYPSIIITHNVSPDTLNREGCKEYDVAPEVGHKFCKDFPGFIPSLLGDLLEERQKIKRKMKATVDPLEKKLLDYRQRAIKILANSFYGYYGYAKARWYCKECAESVTAWGREYIEMVIRELEEKFGFKVLYADTDGLHATIPGADAETVKKKAKEFLKYINPKLPGLLELEYEGFYVRGFFVTKKKYAVIDEEGKITTRGLEIVRRDWSEIAKETQARVLEAILKHGDVEEAVRIVKEVTEKLSKYEVPPEKLVIHEQITRDLRDYKATGPHVAVAKRLAARGVKIRPGTVISYIVLKGSGRIGDRAIPADEFDPTKHRYDAEYYIENQVLPAVERILKAFGYRKEDLRYQKTKQVGLGAWLKVKGKK
B5: 9° N D141A/E143A/R406L/L408E: 9° N DNA polymerase mutant (protein, UniProt Q56366 1-775, looked up, variant D141A E143A R406L L408E)
DNA polymerase: MILDTDYITENGKPVIRVFKKENGEFKIEYDRTFEPYFYALLKDDSAIEDVKKVTAKRHGTVVKVKRAEKVQKKFLGRPIEVWKLYFNHPQDVPAIRDRIRAHPAVVDIYEYDIPFAKRYLIDKGLIPMEGDEELTMLAFAIATLYHEGEEFGTGPILMISYADGSEARVITWKKIDLPYVDVVSTEKEMIKRFLRVVREKDPDVLITYNGDNFDFAYLKKRCEELGIKFTLGRDGSEPKIQRMGDRFAVEVKGRIHFDLYPVIRRTINLPTYTLEAVYEAVFGKPKEKVYAEEIAQAWESGEGLERVARYSMEDAKVTYELGREFFPMEAQLSRLIGQSLWDVSRSSTGNLVEWFLLRKAYKRNELAPNKPDERELARRRGGYAGGYVKEPERGLWDNIVYLDFLSEYPSIIITHNVSPDTLNREGCKEYDVAPEVGHKFCKDFPGFIPSLLGDLLEERQKIKRKMKATVDPLEKKLLDYRQRAIKILANSFYGYYGYAKARWYCKECAESVTAWGREYIEMVIRELEEKFGFKVLYADTDGLHATIPGADAETVKKKAKEFLKYINPKLPGLLELEYEGFYVRGFFVTKKKYAVIDEEGKITTRGLEIVRRDWSEIAKETQARVLEAILKHGDVEEAVRIVKEVTEKLSKYEVPPEKLVIHEQITRDLRDYKATGPHVAVAKRLAARGVKIRPGTVISYIVLKGSGRIGDRAIPADEFDPTKHRYDAEYYIENQVLPAVERILKAFGYRKEDLRYQKTKQVGLGAWLKVKGKK
B6: 9° N D141A/E143A/R406S/L408R: 9° N DNA polymerase mutant (protein, UniProt Q56366 1-775, looked up, variant D141A E143A R406S L408R)
DNA polymerase: MILDTDYITENGKPVIRVFKKENGEFKIEYDRTFEPYFYALLKDDSAIEDVKKVTAKRHGTVVKVKRAEKVQKKFLGRPIEVWKLYFNHPQDVPAIRDRIRAHPAVVDIYEYDIPFAKRYLIDKGLIPMEGDEELTMLAFAIATLYHEGEEFGTGPILMISYADGSEARVITWKKIDLPYVDVVSTEKEMIKRFLRVVREKDPDVLITYNGDNFDFAYLKKRCEELGIKFTLGRDGSEPKIQRMGDRFAVEVKGRIHFDLYPVIRRTINLPTYTLEAVYEAVFGKPKEKVYAEEIAQAWESGEGLERVARYSMEDAKVTYELGREFFPMEAQLSRLIGQSLWDVSRSSTGNLVEWFLLRKAYKRNELAPNKPDERELARRRGGYAGGYVKEPERGLWDNIVYLDFSSRYPSIIITHNVSPDTLNREGCKEYDVAPEVGHKFCKDFPGFIPSLLGDLLEERQKIKRKMKATVDPLEKKLLDYRQRAIKILANSFYGYYGYAKARWYCKECAESVTAWGREYIEMVIRELEEKFGFKVLYADTDGLHATIPGADAETVKKKAKEFLKYINPKLPGLLELEYEGFYVRGFFVTKKKYAVIDEEGKITTRGLEIVRRDWSEIAKETQARVLEAILKHGDVEEAVRIVKEVTEKLSKYEVPPEKLVIHEQITRDLRDYKATGPHVAVAKRLAARGVKIRPGTVISYIVLKGSGRIGDRAIPADEFDPTKHRYDAEYYIENQVLPAVERILKAFGYRKEDLRYQKTKQVGLGAWLKVKGKK

system: modified nucleotide; test: Screen of DNA polymerase mutants for modified nucleotide incorporation; assay type: biochemical
Source text: In order to determine the extent of 3′-modified nucleotide incorporation by archaeon DNA polymerases, the titration assay described by Gardner and Jack (2002) was used. In this assay, the efficiency of incorporation of chain terminators was judged by the size of the reaction products in a polymerization reaction. As the efficiency of chain-terminator incorporation increased, the average reaction product size decreased because polymerization was more often halted by terminator addition. By comparing the amount of terminator required to give the same spectrum of reaction products, the relative efficiency of incorporation of the test compounds with the different polymerases was determined.
A complex library of 9° N DNA polymerase mutants was screened for enhanced incorporation of 3′-azido-ddCTP. Several classes of 9° N DNA polymerase mutants were identified with enhanced terminator incorporation. 9° N exo-L408S/Y409A/P410V (Therminator III™, NEB, Inc., Ipswich, Mass.) was purified and characterized in more detail. 9° N DNA polymerase single mutants P410V, L408S, and Y409A and double mutants L408S/P410V, L408S/Y409A, and Y409A/P410V were also purified for comparison. Purification and characterization of DNA polymerase mutants was as described in Gardner and Jack, Nucleic Acids Res. 27:2545-2553 (1999).
A library of 9° N DNA polymerase mutants was constructed by PCR amplification of the polymerase genes using gene-specific primers or codon optimization and gene synthesis Czar et al. Trends Biotechnol 27(2): 63-72 (2009)). The ability to incorporate 3′-modified nucleotide terminators was evaluated by the titration assay for chain terminator incorporation efficiency as described by Gardner and Jack (2002).
Furthermore, the same assay was used to measure 3′-amino-ddCTP incorporation by 9° N exo-L408S/Y409A/P410V (FIG. 3) and to measure rates of incorporation (FIG. 4). Examples of mutants that increased modified nucleotide incorporation by at least two-fold were: […]

Increase of modified nucleotide incorporation, at least two-fold:
B1, B2, B3, B4, B5, B6
